The target of this assay is NFAT5 (TonEBP) (UniProt O94916). As to the kind of experiment: co-immunoprecipitation, Western blot. As to conditions: reference: EZH2 wild type; sites S21.

Regarding EZH2 (from UniProt Q15910) EZH2 S21A, the “binding against the reference” value is recorded as “weaker”.

Values taken from article PMC10333326.
